Data as given in a protein production outcome set (Wang et al. 2014).

experiment: label from the status in PepcDB records

With “MIRSLLLASAACALAFPAAAETVAIVNARLEPVSSPAIPNGTLVIKDGKIAALGASIQVPAGARVIDAKGGVVTPGLIAPSSNLGASEISGVRETRDDGTGSALSAAFDISYGVNPASTFLGLARDGGITGSAVTPVLSGTGGGAHEHADDGVVEEMTAGAHGDGDPPLFGGQAAFIRLKAGSPDIVEARKLAVTVSLGESGARAAGGSRGANLVLLRSALEDARAFASRRAAFEQGATRDFGLSRLDLQALIPVVQGKTPLLIRVSRAADIRQALKFAAEERIKIVLEGVEEGWMVADEIAKAGVPVILDPQDDLPGSFETLGSRLDNAARLHAAGVSVAINGSRDFNNLRQERLNAGLAVAHGLPYPAALAAVTLVPARIWGQADKVGSLEVGKLADVVVWNGDPLETTSWPTAVLIGGVEQPKDGRHEQLKARYAAGDQNGYPPAYR” as the sequence, how does the protein production read?
Its protein production is “failed”.

For “MIRVGYLGPEATFTNMAVSRFFPEAEHVPYRTIPDCMDAAANGNVDYAVVPLENAIEGSVNITIDYLVHEQPLSIVGEITVPIQQHLLVHPQYAEVWEEVYAVHSHPHAIAQCHKFLNEELKGITARDMTSTSAAAQYVKEHPEEKIAAIANEAAAEKYGLTIVRRSIHTHKNNHTRFLVLHKKKKAILSNNGENRGEKTTLMITLPADYAGALYQVLSAFAWRKLNLSKIESRPMKTGLGNYFFLIDVDKAYDDVLLPGVTMELEALGFSVTVLGSYSSYWL”, which protein production is on record?
The protein production was “failed”.

Which protein production does the source give for “MISAGDFKNGVTFELDGQIFQVIEFQHVKPGKGAAFVRTKLKNIVTGATIEKTFNPTDKMPKAHIERKDMQYLYNDGDLYYFMDTETFEQLPLGKDKIGDALKFVKENEIVKVLSHKGNVFGIEPPNFVELEVTDTEPGFKGDTATGATKPAIVETGASIKVPLFVNKGDIIRIDTRTGEYMERV” here?
Its protein production is “not failed”.

With “MISEIIEFLESNFFYLHPGYTPLNTVVFGIVLGIAVLIILRMFRWLKKDPGELLVPLLPFIFLGSGARALVDNGIYPLTHLLVTPGIYILVGLTTIATLIAAVKLEETRGWDYRKLIFATGSVLAAPNLISIRHIDPVPFLSVLGVFSVFSAAFYALSLRWEFLRGRMNLPVIYAHLFDASSTYVAVDWYGYIEQHVLPSALTGLTGTAMVMFPLKMAVILTALYAIDRYVESDMDSEALKLVIFILGLAPGLRNFLSLSMAV” as the sequence, how does the protein production read?
Its protein production is “failed”.

With “MISFSVMALVFGVVFLAELPDKTALAGLVLGTRYRASYVFAGVAAAFALHVALAVAAGSVLTLLPQQIVHALTGVLFLGGAAVLLMKKGEGEEEIRKPENQSFWKVSSAGFMLILVAEFGDLTQIMTANLAARYDDPLSVGLGAVLALWAVAGLGIVGGRALMKRVPLRLITKVAALLMLALGAWSLYEAVAG” as the sequence, how does the protein production read?
Its protein production is “failed”.

Which protein production does the source give for “MISKHQAVKKIFDQISDKYDLIDTIISLGLDQRWRRSLISNLKLMPGLQCLDCGAGSGKVTELIMESCDSCSVTALDITDSMFNPELTKRCKFVVSPAESLPFSDETFDRVSSAFLTRNLADVDKYFSEVYRVLKPGGIFVNLDIFNPTKPVFSQFFSLYFYRMVPFFGNHATHSRNYSYLANSVKFFYSPFILSKKLESKGFIVEPKDLFFGSVFMHIAQKKLEHHHHHH” here?
The protein production was “not failed”.

Which protein production does the source give for “MISKVIEALAVFTTSVISSMGYGGIVLLMAIESACIPLPSEIIMPFAGYLVYRGEMTLHGAALAGAIGCVVGSIPAYYLGQFGGRPLIEKYGRYVLLSHKELDLADRLFQRWGQWVVFAGRLLPVVRTFIAFPAGVSRMPMGKFIAYTFVGSYPWCYALAWVGEWAGEAWHTDPRVKAVYHRFELVIVVAGVLAVAWFVWHKVKEARRARVPAAADEG” here?
The protein production was “failed”.

For “MISLKNFGLLFWKRFSENKLNQVAGALTYSTMLAMVPLVMVIFSIFSAFPVFNEVTGELKEMIFTNFAPSASDMVGEYIDQFVSNSKKMSAVGIVSLIAVALMLINNIDRTLNSIWHNSQSRSPLSSFAIYWMILTLGPLIIGVSIGISSYIKIMFEQSEHLSLGLKLLSFVPFLFTWFIFTLIYTVVPNKKVKIKHSAYGAFLAAIFFTLGKQAFTWYIVTFPSYQLIYGAMATLPIMLLWIQISWLVVLVGAQLASTLDEIGEQIEQ”, which protein production is on record?
The protein production was “failed”.

Which protein production does the source give for “MISSATKTLQTNNKTIYVAILSTLTFFLFLDYIPGLQAWSAWVTPPVALFLGLIFALTCGQAHPKFNKKTSKYLLQYSVVGLGFGMNLQSALASGKEGMEFTVISVVGTLLIGWFIGRKIFKIDRNTSYLISSGTAICGGSAIAAIGPVLRAKDSEMSVALGTIFILNAIALFIFPAIGHALDMTEHQFGTWAAIAIHDTSSVVGAGAAYGEEALKVATTIKLTRALWIIPMAFATSFIFKSKGQKISIPWFIFFFILAMIANTYLLNGVPQLGAAINGIARKTLTITMFFIGASLSLDVLRSVGVKPLIQGVLLWVVISLSTLAYIYFV” here?
The protein production was “failed”.

With “MISSLKLTEMCTHCGFCLETCPTYVVTRNEVHSPRGRIEAVRIGINSTGFETCMYCRLCETACPAGVKYAQIITPVRKSSLKKTVMEKMLENPKLLAKSLKLLSKANSYPEVQRFVKFVKPNEVSEPLETDGEGDIILFPGCIESVIFRKTVEKAYKYLGKKYKVKIINGCCGLAHISNGNYEGAKKLAIRLAEKVKGKKVITLQSNCAAFMKEYKEWFGIEINAYDFAEFLIKEGIELPKVNDTFTVHYPCHAYRQKLVSHIRNVAEKMGIKIREMEDPHFECGAGGDYWLSHPKLSDMVMNVKRGKIAKSEAKKVIVTNSVCALAIRSMGYDVYHIADLLDT” as the sequence, how does the protein production read?
Its protein production is “failed”.

With “MISTLNEIMKCIEDNDTIIIHRHVRPDPDAYGSQLGLKYYIQQKFPQKQVFAVGEAESSLSFIGELDNIDDKTYQDALVIVCDTANAPRIDDERYSTGSKLIKIDHHPAVDQYGDINLVNTNASSTSEIIYDLISHFNDEAIVNKDIASVLYLGIVGDTGRFLFNNTSEHTMEIAGKLIGHDIDHNALLNKMMEKDPKMLPFQGYVLQHFELMDDGFCQVKITEDVLEQFGIQPNEASQFVNTIADIKGLKIWVFAVDEGSEIRCRLRSKGQLIINDIAQDFGGGGHPNASGVSVNSWDEFEQLATALRTKLN” as the sequence, how does the protein production read?
The protein production was “failed”.

For “MISWRDRLTKALPQIAVVVHDLLMVWVCWQLLHAGRYSMLRDAPNLPLWDWRTAVVLVAQGLVFWKMGLYRGLWRFASVPDLWNIFKASFLGLVAIVLALAYDRLDGVPLSVLVVYPFALSALLGTPRLLYRAWKDYQIAHSGDAAQRVLILGAGRAAEGLVRDLRRTGAFVPVGYLDDANNLHGAKIQGLNVLGNLDQAAAIAKETAAKLLVIAIPSLDASGMQRVVAICESTGLPFRMVPKLINVLEGRSLPGELKEVAIEDLLNRKPVTPDWRLIRDWLTNKTVMVTGAGGSIGSEVCRQCARHGARRIVLLEIDELALLTIDSDLRRLFPDIEVVRVLGDCGDPAVVAHALNTATPDAVFHAAAYKQVPLLEEQLREAVRNNVLATENVARACQRARIETFVFISTDKAVEPVNVLGASKRYAEMICQSLDARDAPTRFITVRFGNVLDSAGSVVPLFREQIRQGGPVTVTHPDVTRYFMTIPEACQLVIQAAASASHGAIYTLDMGEPVPIRLLAEQMIRLAGKQPGKDVAILYTGLRPGEKLHETLFYSDEAYRPTAHPKILEAGVREFSHEQVLQLVMRLREAVNRYDIKAMETVLGSLMPDFAAARRKVDARSDTVVPFPAREVRRL”, which protein production is on record?
Its protein production is “failed”.

Which protein production does the source give for “MITDIPWNRGEWTNQPAAVVEQAGDLLVTAAESSDAWRVTSYGFIHDTEHALLAPLPQDSAMEVEFTAAFSQQFDQAGIFVRISAEHWIKAGVEFADGAAQVGAVVTNRFSDWSLAPVPDWNGERVRMRVSRSGDALTIRAASGSNELRLVRVVPLAPDLVTVAGPFTCAPTRAGLTVPFHSWRAKPADSQLH” here?
Its protein production is “failed”.

With “MITFKEFVDYWFEAYASTAVKPSTQKRYRQLLKPALRAIGNKPLNKVKPLDIQNIYIALAGTQSNCTILKLHRLLHEIFKHAQMWEYISDNPVKKVVPPTPELEHHHHHH” as the sequence, how does the protein production read?
Its protein production is “not failed”.

For “MITIDPEYFEILKEFGAERVVRCYQCGTCTGICPVSTTDASFPRKPVLLSRFGVGEVIENFEEAWLCLSCNLCTEFCPRDVKPSETMLAIKRVLVENGKTPPYIRDFFQLEHHHHHH”, which protein production is on record?
The protein production was “failed”.

Which protein production does the source give for “MITIEISINLELIISFYLLFILGANNVANAIGTAYASRATTYRNLLILFSISVIIGSLFAKNVGSTVNSLSSDALTALIISALVMTLSTYKKVPISLHTVIICSLIGLNFNSSNLYVFGEILLSWILSPIIAVVIAYILYSAYEKIDISILKKITMIRYFLLISAAVVAFNLGSNDLPTVLGTFTTSQIIYIIGAIFLCLGAYLYGNRVSETLSMITNLSVSSAFIAQLSGGLAVTIFTALGMPVSTTQAIVGGILGVGLTKGIKTVRWKVLKNIIFWWVVAPIIALIIGFIINRMI” here?
Its protein production is “failed”.
